Laboratory results taken from article PMC6068105.

Columns and labels:
[1] = molecular target: Human plasma fibronectin (human); experiment: SPR; Biacore T100, 25 °C; fibronectin (10 μg/ml) directly immobilized on CM5 chip; CSGal-1 injected at 30 μl/min; 10 mM HEPES pH 7.4, 150 mM NaCl, 3 mM EDTA, 0.0005% TWEEN-20; steady-state model
[2] = molecular target: recombinant mouse α5β1 integrin protein (mouse) (UniProt P11688); experiment: SPR; Biacore T100, 25 °C; α5β1 integrin (1 μg/ml) captured by anti-α5 integrin antibody on CM5 chip; CSGal-1 injected at 30 μl/min; 10 mM HEPES pH 7.4, 150 mM NaCl, 3 mM EDTA, 0.0005% TWEEN-20; steady-state model

Human plasma fibronectin (human), sequence (P02751 other isoform, or with tags, fused parts or gaps): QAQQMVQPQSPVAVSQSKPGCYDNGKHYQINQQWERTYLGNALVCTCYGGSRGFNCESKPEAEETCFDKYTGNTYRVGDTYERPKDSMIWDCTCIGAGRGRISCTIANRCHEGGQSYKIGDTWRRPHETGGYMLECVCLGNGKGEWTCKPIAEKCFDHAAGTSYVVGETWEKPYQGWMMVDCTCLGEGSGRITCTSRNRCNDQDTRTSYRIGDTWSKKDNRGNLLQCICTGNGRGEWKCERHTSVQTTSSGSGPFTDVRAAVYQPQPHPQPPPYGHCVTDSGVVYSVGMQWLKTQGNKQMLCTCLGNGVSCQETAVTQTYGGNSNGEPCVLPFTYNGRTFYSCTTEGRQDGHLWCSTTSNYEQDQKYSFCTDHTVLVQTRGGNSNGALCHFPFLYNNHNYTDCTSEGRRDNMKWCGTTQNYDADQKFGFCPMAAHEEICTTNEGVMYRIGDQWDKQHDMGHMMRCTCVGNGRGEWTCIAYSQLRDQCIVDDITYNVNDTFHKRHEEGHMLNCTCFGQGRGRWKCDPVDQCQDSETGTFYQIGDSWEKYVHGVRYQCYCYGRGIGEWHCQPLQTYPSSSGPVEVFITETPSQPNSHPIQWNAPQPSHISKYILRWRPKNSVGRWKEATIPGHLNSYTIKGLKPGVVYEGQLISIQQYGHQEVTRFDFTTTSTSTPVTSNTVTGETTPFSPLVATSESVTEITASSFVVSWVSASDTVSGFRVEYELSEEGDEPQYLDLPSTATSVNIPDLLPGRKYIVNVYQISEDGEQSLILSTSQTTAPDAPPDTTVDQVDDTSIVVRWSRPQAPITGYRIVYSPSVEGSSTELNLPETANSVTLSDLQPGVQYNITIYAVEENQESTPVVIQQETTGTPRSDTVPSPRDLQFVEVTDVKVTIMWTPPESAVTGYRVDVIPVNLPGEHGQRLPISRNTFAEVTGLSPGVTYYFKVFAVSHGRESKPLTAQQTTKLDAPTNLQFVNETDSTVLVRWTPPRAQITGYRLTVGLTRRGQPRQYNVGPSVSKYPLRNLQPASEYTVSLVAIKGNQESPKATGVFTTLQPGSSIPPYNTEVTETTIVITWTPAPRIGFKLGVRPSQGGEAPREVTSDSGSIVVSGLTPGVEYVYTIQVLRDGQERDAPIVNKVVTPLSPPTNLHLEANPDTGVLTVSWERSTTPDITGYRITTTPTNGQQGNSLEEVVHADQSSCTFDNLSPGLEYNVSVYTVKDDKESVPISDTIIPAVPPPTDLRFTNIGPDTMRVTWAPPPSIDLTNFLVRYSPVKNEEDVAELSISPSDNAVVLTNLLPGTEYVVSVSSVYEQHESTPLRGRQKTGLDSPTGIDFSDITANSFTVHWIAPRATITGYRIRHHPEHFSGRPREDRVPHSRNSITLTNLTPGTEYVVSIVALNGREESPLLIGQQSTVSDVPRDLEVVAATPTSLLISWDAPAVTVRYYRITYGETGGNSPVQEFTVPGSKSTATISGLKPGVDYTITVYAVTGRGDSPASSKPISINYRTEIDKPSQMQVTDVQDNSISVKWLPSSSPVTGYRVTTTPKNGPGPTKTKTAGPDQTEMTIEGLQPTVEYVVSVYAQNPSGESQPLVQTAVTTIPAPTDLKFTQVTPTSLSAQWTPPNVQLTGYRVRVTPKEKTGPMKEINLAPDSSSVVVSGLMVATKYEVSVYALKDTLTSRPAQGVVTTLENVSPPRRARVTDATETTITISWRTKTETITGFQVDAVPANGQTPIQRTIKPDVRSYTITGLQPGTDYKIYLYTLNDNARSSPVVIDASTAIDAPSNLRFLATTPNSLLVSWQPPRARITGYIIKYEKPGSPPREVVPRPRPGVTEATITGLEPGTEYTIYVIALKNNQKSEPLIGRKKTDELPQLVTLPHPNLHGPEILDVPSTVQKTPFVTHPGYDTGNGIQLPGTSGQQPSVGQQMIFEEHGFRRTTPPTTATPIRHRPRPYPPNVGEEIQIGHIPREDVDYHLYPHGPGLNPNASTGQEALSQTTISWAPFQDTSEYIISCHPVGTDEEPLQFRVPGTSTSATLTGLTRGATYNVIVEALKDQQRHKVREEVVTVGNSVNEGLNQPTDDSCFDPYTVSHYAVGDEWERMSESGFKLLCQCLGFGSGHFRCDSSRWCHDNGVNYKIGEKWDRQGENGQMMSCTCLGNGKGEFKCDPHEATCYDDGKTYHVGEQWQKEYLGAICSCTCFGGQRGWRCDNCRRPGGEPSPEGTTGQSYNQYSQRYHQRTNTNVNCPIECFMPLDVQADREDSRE

CSGal-1, cysteine-less mutant of human galectin-1, tag-free recombinant protein (from UniProt P09382 1-135) (natural protein)
Kd [1]: 12.4 µM | Kd [2]: 0.852 µM
